B1: full-length RspWYL1 (Ruminococcus sp. WYL1, amino acids 1–392) (natural protein)
chain: MLIPPSTFLPKRDKNVPYIAEVQSIPLSPSAYSVIIKDKSIFETSLSPNGSVSMSSFLTSIFDSAYIASLKYKSDDNYKYIGIPLLNAFVEWQIEEIDDSLDDKSKEIIKSYLISKLSAKYEKTKTENAVRVRLSICRDLYDTLSSDDLYYENKVYSLTLRRFLKAVYEDYALLSDCERERLIFADNIIKINEVIKQNGSRYYSFIYAYSNMYSREKRRIRLIPYRIVSDEYKMYNYLVCLSDEKSAGKEFKADSYRISRLSGLSIAEKLSQKEYSSVTEYERLKEGHVKSVKHLLSDPRFGSDESDISKVYLTEKGVEMFRKILYQRPILKGNEKPKPNTVNEFISPPIQVKYYFNKFGKDGVILSPSDSFEEMRTLYVEGADAYNREVEM
modifications: apo (no crRNA); full length assumed, since limits are not given; 954 aa matches the known EsCas13d length
B2: full-length RspWYL1 (Ruminococcus sp. WYL1, amino acids 1–392) (natural protein)
chain: B1 chain

Key:
EsCas13d = target: T1, EsCas13d ([Eubacterium] siraeum DSM 15702); assay: ITC
T1 chain: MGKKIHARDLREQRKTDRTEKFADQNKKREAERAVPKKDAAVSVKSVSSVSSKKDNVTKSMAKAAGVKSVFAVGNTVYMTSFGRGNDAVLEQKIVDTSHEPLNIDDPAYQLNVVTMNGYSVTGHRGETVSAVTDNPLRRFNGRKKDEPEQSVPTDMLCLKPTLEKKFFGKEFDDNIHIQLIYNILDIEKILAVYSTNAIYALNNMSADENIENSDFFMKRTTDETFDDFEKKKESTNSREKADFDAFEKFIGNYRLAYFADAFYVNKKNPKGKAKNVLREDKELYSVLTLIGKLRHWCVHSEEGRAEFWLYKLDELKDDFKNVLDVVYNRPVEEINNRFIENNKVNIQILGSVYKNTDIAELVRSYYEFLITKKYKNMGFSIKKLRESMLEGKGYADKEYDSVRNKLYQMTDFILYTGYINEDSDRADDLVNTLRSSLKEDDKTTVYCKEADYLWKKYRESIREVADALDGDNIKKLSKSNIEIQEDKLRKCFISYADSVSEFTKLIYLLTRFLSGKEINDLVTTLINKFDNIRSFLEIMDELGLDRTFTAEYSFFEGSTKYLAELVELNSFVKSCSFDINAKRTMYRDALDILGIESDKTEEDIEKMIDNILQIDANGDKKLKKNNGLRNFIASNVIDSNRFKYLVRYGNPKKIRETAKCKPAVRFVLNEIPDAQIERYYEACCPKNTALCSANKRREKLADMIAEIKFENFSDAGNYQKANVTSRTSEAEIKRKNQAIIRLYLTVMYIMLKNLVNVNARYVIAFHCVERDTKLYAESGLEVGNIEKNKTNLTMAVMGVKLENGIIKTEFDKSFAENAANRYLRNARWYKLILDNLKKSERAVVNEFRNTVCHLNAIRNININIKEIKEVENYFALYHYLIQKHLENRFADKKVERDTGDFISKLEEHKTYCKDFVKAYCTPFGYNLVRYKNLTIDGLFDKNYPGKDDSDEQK

RspCas13d = RspCas13d (Ruminococcus sp. (from the prefix Rsp, …)); assay: ITC

Row | Binder | Kd (EsCas13d) | Kd (RspCas13d)
1 | B1 | ~270 µM | –
2 | B2 | – | ~250 µM

Source: PMC6547453 (2019)
